Assay results: publication doi:10.1101/2021.07.31.454597 (bioRxiv, 2021)

B1: Cre^K201A (enzyme)
chain: MSNLLTVHQNLPALPVDATSDEVRKNLMDMFRDRQAFSEHTWKMLLSVCRSWAAWCKLNNRKWFPAEPEDVRDYLLYLQARGLAVKTIQQHLGQLNMLHRRSGLPRPSDSNAVSLVMRRIRKENVDAGERAKQALAFERTDFDQVRSLMENSDRCQDIRNLAFLGIAYNTLLRIAEIARIRVKDISRTDGGRMLIHIGRTATLVSTAGVEKALSLGVTKLVERWISVSGVADDPNNYLFCRVRKNGVAAPSATSQLSTRALEGIFEATHRLIYGAKDDSGQRYLAWSGHSARVGAARDMARAGVSIPEIMQAGGWTNVNIVMNYIRNLDSETGAMVRLLEDGD

Assays:
[1] = target: Cre^Yang (R72E/L115D/R199D) (UniProt P06956); experiment: native MS
cryo-EM structure = target: the molecule itself; experiment: cryo-EM structure

Row | Molecule | percent of the 2:1 protein:loxP complexes (ion counts) [1] [%] | stoichiometry N (cryo-EM structure)
1 | Cre^Yin (D33A/A36V/R192A) (from UniProt P06956 1-343) (enzyme) | 36 | –
2 | B1 | – | 4
